The target in experiment [1] is porcine calpain-1 (pig (Sus scrofa)) (UniProt P35750). Kind of experiment: SPR; calpain-1 immobilised on a CM5 chip by amino coupling (8,860 RU); PEDV S1 protein injected at 100 to 0.8 uM; room temperature; running buffer pH 5.4, 25 mM HEPES, 100 mM NaCl, 3 mM EDTA with 5 mM CaCl2; 1:1 Langmuir model; average KD of triplicates.
Experiment [2] concerns the target recombinant S1 protein of PEDV strain CV777 (S1 domain of the spike protein) (porcine epidemic diarrhea virus, …, UniProt Q91AV1 1-1319, Expressed in a prokaryotic system, so not glycosylated. Construct limits are not printed: S1 is taken by convention as ending at residue 789, with the signal peptide 1-25 removed per UniProt.). The experiment is described as above. The conditions noted are these: both partners purified.

Several values for one entry are separate records, joined by “and”; a condition that tells them apart may be missing. Equal entries are not always repeated.

Regarding “recombinant S1 protein of PEDV strain OH851 (S1 domain of the spike protein) (domain or fragment)”, the Kd in experiment [1] was found to be 0.787 µM. “protein S1Δb1: PEDV S1 (CV777) lacking the b1 domain (N297 to A337) (from UniProt Q91AV1 1-1319) (domain or fragment)” yielded a Kd in experiment [1] of 198 µM.

B1: porcine calpain-1 (enzyme, pig (Sus scrofa), UniProt P35750 1-714, looked up)
chain: MAEEVITPVYCTGVSAQVQKLRAKELGLGRHENAIKYLGQDYEQLRAHCLQSGSLFRDEAFPPVPQSLGFKELGPNSSKTYGVKWKRPTELFSNPQFIVDGATRTDICQGALGDCWLLAAIASLTLNDTLLHRVVPHGQSFQNGYAGIFHFQLWQFGEWVDVVVDDLLPTKDGKLVFVHSAQGNEFWSALLEKAYAKVNGSYEALSGGSTSEGFEDFTGGVTEWYELRKAPSDLYSIILKALERGSLLGCSIDISSVLDMEAVTFKKLVKGHAYSVTGAKQVNYQGQMVNLIRMRNPWGEVEWTGAWSDGSSEWNGVDPYQRDQLRVRMEDGEFWMSFRDFLREFTRLEICNLTPDALKSQRVRNWNTTLYEGTWRRGSTAGGCRNYPATFWVNPQFKIRLEETDDPEDDYGGRESGCSFVLALMQKHRRRERRFGRDMETIGFAVYEVPPELVGQPVHLKRDFFLANASRARSEQFINLREVSTRFRLPPGEYVVVPSTFEPNKEGDFVLRFFSEKKAGTQELDDQVQAILPDEQVLSEEEIDENFKALFRQLAGEDMEISVRELRTILNRIISKHKDLRTKGFSLESCRSMVNLMDRDGNGKLGLVEFNILWNRIRNYLSIFRKFDLDKSGSMSAYEMRMAIESAGFKLNKKLFELIITRYSEPDLAVDFDNFVCCLVRLETMFRFFKTLDTDLDGVVTFDLFKWLQLTMFA
notes: calpain-1 (catalytic subunit), pig (Sus scrofa); The discussion says in general that calpain-1 is a heterodimer of a catalytic subunit and a regulatory subunit (CAPNS1); also called CAP; p-calpain-1; source: calpain-1 purified from porcine small intestinal mucus fraction III on an antibody column; recombinant p-calpain-1 from HEK 293F, Ni-NTA
Turning to B1, the equilibrium dissociation constant (Kd) in experiment [2] is 1.07 µM and 2.5 µM.
